{"source": "patent US20080124780A1", "about": "“Hybrid immobilized catalytic system with controlled permeability” (NORTHEASTERN UNIVERSITY, priority 2002, published 2008)", "details": "not told; for Permeability Coefficient: pH 7.4", "from_the_text": "In order to estimate the molecular weight cut-off point of the cross-linked chitosan, a model representing the chitosan layer was developed in which a thin membrane acts as a layer surrounding the alginate core. The permeability coefficients for vitamin B2 (molecular weight 376 daltons) and vitamin B12 (molecular weight 1355 daltons) representing low-molecular weight substrates, and myoglobin (molecular weight 14,000 daltons) representing a high molecular weight substrate, were studied.\nChitosan solution was prepared by dissolving the polymer (750 kDa, 87.6% deacetylation) obtained from Pronova Biopolymers (Raymond, Wash.) in 0.1-M acetic acid to make a 0.75% (w/v) solution. Films were made by pouring 10 ml of the solution into a Petri dish (100×15 mm) and air-drying for up to 48 hours. The resulting films were dipped into a 3.0% (w/v) aqueous sodium tri-polyphosphate (Na-TPP, Sigma Chemical Company, St. Louis, Mo.) solution and kept for 1.5 hours. The cross-linked membranes were washed with distilled water once and stored in PBS at 4° C.\nUsing a side-by-side diffusion apparatus, the permeability coefficients of vitamin B2, vitamin B12, and myoglobin were determined. Briefly, each apparatus was composed of a donor compartment and a receptor compartment, with a 15-ml capacity. The donor and receptor compartments were separated by the membrane.\nThe donor compartment was filled with 15 ml of vitamin B2, vitamin B12, or myoglobin solution, and the receptor compartment was filled with 15 ml of phosphate buffered-saline (PBS) pH 7.4. The concentrations of vitamin B2, vitamin B12 and myoglobin were 0.1, 1.0, and 0.1 mg/ml respectively. The receptor compartment was stirred and temperature was controlled in both compartments at 37° C. by a circulating water bath. […] The absorbance values of vitamin B2 at 440 nm, vitamin B12 at 361 nm, and myoglobin at 410 nm were measured using a Shimadzu 160U UV/IV spectrophotometer (Columbia, Md.). The concentration of the diffused compound into the receptor compartment was calculated from calibration curves constructed earlier. […]", "data": [{"substance": "myoglobin", "values": [{"measurement": "permeation through the membrane", "result": "permeated at only a low level"}, {"measurement": "Permeability Coefficient", "result": "0.34 ± 0.89", "unit": "cm^2/min × 10^6"}]}, {"substance": "vitamin B12", "values": [{"measurement": "Permeability Coefficient", "result": "7.46 ± 1.47", "unit": "cm^2/min × 10^6"}]}]}
